Tests used:
[1] = molecular target: T1, recombinant human IL-21 receptor (human, UniProt Q9HBE5 20-232); assay: KinExA, recombinant human IL-21R
T1 construct: Used in Biacore and KinExA ('recombinant IL-21R', column 'hu'); also called recombinant IL-21R; hu IL-21R

[2] = molecular target: T2, recombinant cynomolgus IL-21 receptor (cynomolgus monkey, UniProt G7Q0S8 41-253); assay: Biacore, recombinant cyno IL-21R
T2 construct: construct not described; also called cyno IL-21R

[3] = molecular target: T1, recombinant human IL-21 receptor; assay: Biacore, recombinant human IL-21R
[4] = molecular target: T3, human IL-21 receptor on cells (human, UniProt Q9HBE5 20-538); assay: flow cytometry on Ramos cells, antibody titration, anti-huIgG detection
T3 construct: Endogenous receptor on Ramos cells (human Burkitt's lymphoma) and on primary human blood cells; also called endogenous human IL-21R on RAMOS cells; IL-21R-expressing cell line
T3 sequence (Q9HBE5 20-538 limits assumed): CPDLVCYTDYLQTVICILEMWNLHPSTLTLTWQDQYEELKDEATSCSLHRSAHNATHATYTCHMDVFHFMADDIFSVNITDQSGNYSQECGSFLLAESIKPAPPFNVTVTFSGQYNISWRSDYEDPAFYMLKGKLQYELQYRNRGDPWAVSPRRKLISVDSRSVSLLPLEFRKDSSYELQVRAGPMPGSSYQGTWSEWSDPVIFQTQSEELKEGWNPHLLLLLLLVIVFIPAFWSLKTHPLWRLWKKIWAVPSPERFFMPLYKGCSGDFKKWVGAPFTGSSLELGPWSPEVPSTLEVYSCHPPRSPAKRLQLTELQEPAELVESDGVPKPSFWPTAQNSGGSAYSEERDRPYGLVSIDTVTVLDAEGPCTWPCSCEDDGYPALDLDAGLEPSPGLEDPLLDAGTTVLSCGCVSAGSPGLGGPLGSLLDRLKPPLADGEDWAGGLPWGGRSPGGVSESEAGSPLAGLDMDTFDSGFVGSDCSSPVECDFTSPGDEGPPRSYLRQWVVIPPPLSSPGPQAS
Procedure: Assay protocols ¹B/T co-culture. Mitomicin C-treated human T cells were cultured with B cells in anti-CD3 antibody pre-coated 96-well plates as described in Kuchen et al. (2007) J Immunol 179: 5886, incorporated herein by reference in its entirety. Supernatants were collected for IgA ELISA on day 6. ²B cell IgA production. Negatively selected human peripheral blood B cells were cultured in vitro with IL-21 and CD40L. On day 6, supernatants were collected for human IgG ELISA analysis. ³CD8 IFN-γ production. Purified human CD8 T cells were cultured with IL-21. IFN-γ was measured in the supernatant on day 3. ⁴Whole blood pSTAT3 stimulation. Human or cynomolgus monkey whole blood was pre-incubated with IL-21R mAbs titrations at 37° C. for 1 hr and stimulated with IL-21. Cells were fixed, permeabilized and stained for pSTAT3 and cell surface markers. ⁵Cell based KD measurement. Ramos cells (Human Burkitt's lymphoma) were incubated with a titration of IL-21R mAbs and bound antibody was detected with anti-huIgG by flow cytometry.

[5] = molecular target: cynomolgus IL-21 receptor on cells (cynomolgus monkey, UniProt G7Q0S8 41-559); assay: cell-based or functional assay
[6] = molecular target: T3, human IL-21 receptor on cells; assay: cell-based or functional assay

T1 sequence (Q9HBE5 20-232 limits assumed): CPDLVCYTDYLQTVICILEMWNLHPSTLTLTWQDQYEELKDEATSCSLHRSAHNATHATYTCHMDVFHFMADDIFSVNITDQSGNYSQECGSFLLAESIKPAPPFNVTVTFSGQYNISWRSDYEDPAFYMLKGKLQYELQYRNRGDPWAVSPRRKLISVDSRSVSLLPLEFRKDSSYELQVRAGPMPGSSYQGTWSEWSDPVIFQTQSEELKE

Binder	Kd [1] [nM]	Kd [2] [nM]	Kd [3] [nM]	Kd [4] [nM]	cyno pSTAT3 IC-50, B [5] [pM]	cyno pSTAT3 IC-50, T [5] [pM]	B cell (IgA) IC-50, exp1 [6] [pM]	B cell (IgA) IC-50, exp2 [6] [pM]	B/T co-culture (IgA) IC-50, exp1 [6] [pM]	B/T co-culture (IgA) IC-50, exp2 [6] [pM]	B/T co-culture (IgA) IC-50, exp3 [6] [pM]	B/T co-culture (IgA) IC-50, exp4 [6] [pM]	B/T co-culture (IgA) IC-50, exp5 [6] [pM]	CD8 T (IFNγ) IC-50, exp1 [6] [pM]	CD8 T (IFNγ) IC-50, exp2 [6] [pM]	hu pSTAT3 IC-50, B [6] [pM]	hu pSTAT3 IC-50, T [6] [pM]
30G3 (antibody, V domains shown, Fully human antibody from XenoMouse; also called anti-IL-21 receptor antibody 30G3; IL-21R mAb 30G3) VH: QVQLQESGPGLVKPSETLSLTCTVSGGSISSYYWSWIRQPAGKGLEWIGRIYTSGSTYFNPSLKSRVTMSVDTSKNQFSLKLSSVTAADTAVYYCARGRELLDYWGQGTLVTVSS VL: EVVLTQSPGTLSLSPGERATLSCRASQSFSSSYLAWYQQKPGQAPRLLIFGASSRATGIPDRFSGSGSGTDFTLTINRLEPEDFALYYCQQYGRSPLTFGGGTKVEIKR	0.015	0.078	0.016	0.033	9	33	58	31	44	31	24	24	19	203	35	36	10
34H7 (antibody, V domains shown, Fully human antibody from XenoMouse, subcloned as a full IgG construct; also called anti-IL-21 receptor antibody 34H7; IL-21R mAb 34H7) VH: EVQLVQSGAELKKPGESLKISCKGSGYRFTSYWIGWVRQMPGKGLEWMGIIYPGDSDTRYSPSFQGQVTISADKSISTAYLQWHSLKVSDTAMYYCASPGYSTRWYHFDYWGQGTLVTVSS VL: EIVMTQSPATLSVSPGERATLSCRASQSISSSLVWYQQKPGQAPRLLIYGASTRATGIPARFSGSGSGTEFSLTISSLQSEDFAVYYCQQYNNWPLLTFGPGTKVDIKR	0.006	0.043	0.035	0.015	4	13	18	49	16	9	11	17	10	79	27	14	8
29G8 (antibody, V domains shown, Fully human antibody from XenoMouse, subcloned as a full IgG construct; also called anti-IL-21 receptor antibody 29G8; IL-21R mAb 29G8) VH: QVQLVESGGGVVQPGRSLRLSCAASGFTFSSYGMHWVRQAPGKGLEWVAVIWYDGSNKYYVDSVKGRFTISRDNSKNTLYLQMNSLRAEDTAVYYCARDRGYYDSGSYYMDYWGQGSLVTVSS VL: DIQMTQSPSSVSASVGDRVTITCRASQGISTWLAWYQQKPGKAPKLLIYAASILQRGVPSRFSGSGSGTDFTLTISSLQPEDFTTYYCQQANSFPRTFGQGTKVEIKR	0.026	0.166	0.078	0.016	65	286	22	47	29	8	17	17	14	139	48	137	33
